We go through 3 molecules from article PMC10757926, “Two birds with one stone: human SIRPα nanobodies for functional modulation and in vivo imaging of myeloid cells” (Frontiers in Immunology, 2023).

Residue numbers refer to the chain shown, from its start. Numbers in names are those of the source.

Test [1] deals with T1, recombinant hSIRPα (human, UniProt P78324).
T1 construct: signal-regulatory protein α (SIRPα), human, recombinant extracellular portion; source: bought: Acrobiosystems
The test can be described thus: HDX-MS; hSIRPα with Nb S8, S33 or S36; methods not in the text shown. To be noted: both partners purified.

For test [2], the target named is T2, biotinylated recombinant hSIRPα (extracellular portion) (Homo sapiens, UniProt P78324, biotin (Sulfo-NHS-LC-LC-Biotin)).
T2 construct: signal-regulatory protein α (SIRPα), human, recombinant extracellular portion; also called biotinylated hSIRPα; signal-regulatory protein α; source: bought: Acrobiosystems
The test can be described thus: BLI; Octet RED96e; biotinylated hSIRPα (5 µg/mL) immobilised on streptavidin biosensors; Nbs 0.625 nM to 320 nM in Octet buffer (PBS, 0.1% BSA, 0.02% Tween-20); association 240 s, dissociation 720 s; 1:1 model, global fit. Conditions: both partners purified. A general note: Biolayer interferometry detects binding as a change in optical thickness at a sensor tip.

The target of test [3] is T3, hSIRPα domain 3 displayed on U2OS cells (Homo sapiens, UniProt P78324).
T3 construct: signal-regulatory protein α (SIRPα), human, domain 3; also called hSIRPαD3; D3; source: U2OS, transiently expressing, on live cells
In words: immunostaining of cells or tissue; live-cell immunofluorescence on U2OS cells expressing the target; unlabeled Nbs (1 nM to 100 nM) with Cy5-labeled anti-VHH, 1 h at 37°C. Conditions: one partner purified.

The target in test [4] is T4, hSIRPβ1 displayed on U2OS cells (Homo sapiens, UniProt O00241).
T4 construct: signal-regulatory protein β1 (SIRPβ1), human; source: U2OS, transiently expressing, on live cells
The test is described as above. To be noted: one partner purified.

The target in test [5] is T5, hSIRPα-V1 displayed on U2OS cells (Homo sapiens, allele V1, UniProt P78324).
T5 construct: signal-regulatory protein α (SIRPα), human, allelic variant V1; also called hSIRPα variant V1; source: U2OS, transiently expressing, on live cells
Described as above. Conditions: one partner purified.

The target of test [6] is T6, murine SIRPα displayed on U2OS cells (Mus musculus, UniProt P97797).
T6 construct: signal-regulatory protein α (SIRPα), mouse; also called mouse SIRPα; source: U2OS, transiently expressing, on live cells
The test is described as above. Conditions: one partner purified.

In test [7] the target is T7, full-length hSIRPα on U2OS cells (Homo sapiens, UniProt P78324).
T7 construct: signal-regulatory protein α (SIRPα), human, full-length, co-expressed with IRES-derived GFP; also called U2OS-hSIRPα; source: U2OS, stably expressing, on live cells
Described as above. To be noted: one partner purified.

In test [8] the target is T8, hSIRPα domain 2 displayed on U2OS cells (Homo sapiens, UniProt P78324).
T8 construct: signal-regulatory protein α (SIRPα), human, domain 2; also called hSIRPαD2; D2; source: U2OS, transiently expressing, on live cells
The description is as above. To be noted: one partner purified.

Test [9] concerns the target T9, hSIRPγ displayed on U2OS cells (Homo sapiens, UniProt Q9P1W8).
T9 construct: signal-regulatory protein γ (SIRPγ), human; also called hSIRPy; source: U2OS, transiently expressing, on live cells
Described as above. To be noted: one partner purified.

Test [10] deals with T10, hSIRPα on HT1080 hSIRPα knock-in cells (Homo sapiens, UniProt P78324).
T10 construct: signal-regulatory protein α (SIRPα), human; source: HT1080 hSIRPα knock-in (KI) cells, on cells
In words: radioligand binding; antigen excess binding assay: 1 ng (2 MBq/µg) of ^64Cu-hSIRPα-S36K>R Nb on an increasing number of HT1080-hSIRPα cells, 1 h at 37°C; cell-bound radioactivity counted. Conditions: one partner purified.

T2 sequence (P78324 31-373): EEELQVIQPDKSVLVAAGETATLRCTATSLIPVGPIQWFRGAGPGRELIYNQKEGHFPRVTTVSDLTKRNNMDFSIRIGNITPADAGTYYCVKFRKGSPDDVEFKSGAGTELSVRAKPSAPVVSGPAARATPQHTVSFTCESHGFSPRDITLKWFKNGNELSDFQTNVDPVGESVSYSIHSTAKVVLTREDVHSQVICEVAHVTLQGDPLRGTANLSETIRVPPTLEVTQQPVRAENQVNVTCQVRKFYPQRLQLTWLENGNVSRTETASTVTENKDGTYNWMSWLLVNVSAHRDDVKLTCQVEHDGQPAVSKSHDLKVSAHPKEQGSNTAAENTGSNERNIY
T1 sequence (P78324 31-373): as above
T9 sequence (Q9P1W8 29-387): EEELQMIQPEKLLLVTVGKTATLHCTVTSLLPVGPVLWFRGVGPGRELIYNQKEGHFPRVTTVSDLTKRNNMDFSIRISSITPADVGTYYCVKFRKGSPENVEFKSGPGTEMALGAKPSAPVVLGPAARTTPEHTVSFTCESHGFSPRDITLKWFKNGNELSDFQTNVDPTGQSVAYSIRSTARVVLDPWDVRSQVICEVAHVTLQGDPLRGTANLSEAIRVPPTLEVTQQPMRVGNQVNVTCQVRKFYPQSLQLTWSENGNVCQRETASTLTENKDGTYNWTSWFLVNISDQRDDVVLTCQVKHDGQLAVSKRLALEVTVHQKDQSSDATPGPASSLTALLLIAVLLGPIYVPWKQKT
T7 sequence (P78324 31-504): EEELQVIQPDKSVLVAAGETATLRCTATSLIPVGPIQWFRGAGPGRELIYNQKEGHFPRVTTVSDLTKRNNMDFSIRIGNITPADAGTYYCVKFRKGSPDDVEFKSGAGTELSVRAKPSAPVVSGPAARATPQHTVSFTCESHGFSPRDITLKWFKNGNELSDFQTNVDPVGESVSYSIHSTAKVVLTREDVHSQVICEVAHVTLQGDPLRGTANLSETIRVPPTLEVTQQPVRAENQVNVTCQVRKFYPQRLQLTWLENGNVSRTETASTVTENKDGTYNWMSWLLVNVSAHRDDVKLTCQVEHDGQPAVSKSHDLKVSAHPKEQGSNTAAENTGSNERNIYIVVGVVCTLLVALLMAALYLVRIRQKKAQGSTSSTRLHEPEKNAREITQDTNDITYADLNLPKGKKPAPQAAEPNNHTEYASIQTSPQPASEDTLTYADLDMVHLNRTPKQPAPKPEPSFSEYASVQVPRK
T5 sequence (P78324 31-504): as above
T10 sequence (P78324 31-504): as above
T8 sequence (P78324 whole entry, looked up, tested part not stated): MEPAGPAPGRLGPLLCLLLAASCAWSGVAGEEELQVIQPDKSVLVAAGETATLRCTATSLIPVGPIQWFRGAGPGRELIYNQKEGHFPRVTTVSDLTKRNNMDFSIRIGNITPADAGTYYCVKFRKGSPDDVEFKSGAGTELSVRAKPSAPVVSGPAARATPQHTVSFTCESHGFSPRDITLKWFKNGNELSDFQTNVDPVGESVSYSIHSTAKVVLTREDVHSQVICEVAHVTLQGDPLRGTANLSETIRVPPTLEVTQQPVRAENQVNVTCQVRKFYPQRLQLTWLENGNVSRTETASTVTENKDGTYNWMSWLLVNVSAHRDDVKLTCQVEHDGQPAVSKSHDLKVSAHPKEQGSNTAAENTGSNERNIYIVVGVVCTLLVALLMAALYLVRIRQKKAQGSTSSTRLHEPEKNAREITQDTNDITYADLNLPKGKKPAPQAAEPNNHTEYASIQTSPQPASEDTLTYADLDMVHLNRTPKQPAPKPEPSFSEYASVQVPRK
T3 sequence (P78324 whole entry, looked up, tested part not stated): as above
T4 sequence (O00241 30-398): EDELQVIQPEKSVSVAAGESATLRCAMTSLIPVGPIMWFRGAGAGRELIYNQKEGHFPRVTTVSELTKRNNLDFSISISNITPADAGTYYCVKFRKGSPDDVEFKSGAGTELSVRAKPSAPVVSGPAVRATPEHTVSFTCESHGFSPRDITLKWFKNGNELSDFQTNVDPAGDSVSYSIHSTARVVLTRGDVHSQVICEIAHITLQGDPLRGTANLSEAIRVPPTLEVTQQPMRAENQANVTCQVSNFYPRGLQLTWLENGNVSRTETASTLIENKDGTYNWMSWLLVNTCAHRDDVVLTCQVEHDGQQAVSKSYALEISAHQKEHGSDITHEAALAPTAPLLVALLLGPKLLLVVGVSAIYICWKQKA
T6 sequence (P97797 32-513): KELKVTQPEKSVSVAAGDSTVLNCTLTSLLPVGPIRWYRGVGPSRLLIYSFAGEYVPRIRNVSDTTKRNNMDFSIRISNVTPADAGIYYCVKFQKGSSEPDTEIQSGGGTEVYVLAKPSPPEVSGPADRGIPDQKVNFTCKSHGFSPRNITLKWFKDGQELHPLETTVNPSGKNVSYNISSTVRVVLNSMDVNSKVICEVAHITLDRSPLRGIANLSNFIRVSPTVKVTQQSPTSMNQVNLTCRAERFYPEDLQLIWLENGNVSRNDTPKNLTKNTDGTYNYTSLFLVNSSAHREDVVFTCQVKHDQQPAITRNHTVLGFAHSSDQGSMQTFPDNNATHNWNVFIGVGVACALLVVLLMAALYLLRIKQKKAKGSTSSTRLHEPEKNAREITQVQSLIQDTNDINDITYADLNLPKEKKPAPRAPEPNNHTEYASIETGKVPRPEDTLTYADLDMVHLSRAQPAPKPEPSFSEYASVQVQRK

B1: hSIRPα-S36 Nb (VHH)
VHH: EVQLVESGGGLVQPGGSLRLSCAASGFTLDYYAIGWFRQVPGKEREGVSCISSDGGGNTYYADSVKGRFTISRDNAKNTVYLQMNSLKPEDSAVYSCAAGPTYYSGSYCRDPHSDYDYWGQGTQVTVSS
notes: selected against the entire extracellular portion of hSIRPα; also called Nb S36; original S36 Nb; source: E. coli XL-1, purified (IMAC, SEC); not shown: His tag (from the IMAC purification)
Turning to B1, the binding result in [1] is listed as “binds”; in test [2] it was “binds”; in [3], “no binding (tested: Nbs 1 nM to 100 nM)”; in test [4], “binds”; in test [5], “binds”; in test [6], “no binding (tested: Nbs 1 nM to 100 nM)”. For the same molecule, the binding result in test [7], in [8] and in test [9] was “binds” in each case.

B2: ^64Cu-hSIRPα-S36K>R Nb (VHH)
VHH: B1 VHH with K43R, K66R, K77R, K88R
notes: as the VHH of m15 (S36 with all four lysine residues replaced by arginine); also called ^64Cu-labeled hSIRPα-S36K>R Nb; source: E. coli, purified; chelator conjugated and radiolabeled with ^64Cu
With B2, in test [10], the binding result was “binds”.

B3: hSIRPα-S36K>R Nb (VHH)
VHH: B1 VHH with K43R, K66R, K77R, K88R
notes: as the VHH of m9 (S36); source: E. coli, purified
Turning to B3, the binding result in test [2] was “binds”.
